# Measurements as given in article PMC3184176.
# T1: FL-Pot1 (Schizosaccharomyces pombe, UniProt O13988 1-555)
# T1 sequence: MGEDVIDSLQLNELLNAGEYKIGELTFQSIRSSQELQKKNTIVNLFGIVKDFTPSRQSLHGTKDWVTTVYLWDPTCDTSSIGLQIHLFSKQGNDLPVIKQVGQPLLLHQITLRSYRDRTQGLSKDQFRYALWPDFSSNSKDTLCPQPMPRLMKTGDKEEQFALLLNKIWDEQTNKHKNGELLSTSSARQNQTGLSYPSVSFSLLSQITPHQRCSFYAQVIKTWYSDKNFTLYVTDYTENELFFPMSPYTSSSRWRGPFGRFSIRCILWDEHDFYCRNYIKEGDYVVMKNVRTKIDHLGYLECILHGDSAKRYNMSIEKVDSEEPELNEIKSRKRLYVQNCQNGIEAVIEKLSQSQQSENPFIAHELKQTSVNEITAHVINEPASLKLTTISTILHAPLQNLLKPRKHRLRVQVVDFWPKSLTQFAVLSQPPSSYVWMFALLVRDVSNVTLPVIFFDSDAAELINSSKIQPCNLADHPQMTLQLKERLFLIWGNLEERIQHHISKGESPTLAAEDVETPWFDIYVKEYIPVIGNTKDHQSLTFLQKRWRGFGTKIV
# T2: Pot1-DBD (Schizosaccharomyces pombe, UniProt O13988 1-389)
# T2 sequence: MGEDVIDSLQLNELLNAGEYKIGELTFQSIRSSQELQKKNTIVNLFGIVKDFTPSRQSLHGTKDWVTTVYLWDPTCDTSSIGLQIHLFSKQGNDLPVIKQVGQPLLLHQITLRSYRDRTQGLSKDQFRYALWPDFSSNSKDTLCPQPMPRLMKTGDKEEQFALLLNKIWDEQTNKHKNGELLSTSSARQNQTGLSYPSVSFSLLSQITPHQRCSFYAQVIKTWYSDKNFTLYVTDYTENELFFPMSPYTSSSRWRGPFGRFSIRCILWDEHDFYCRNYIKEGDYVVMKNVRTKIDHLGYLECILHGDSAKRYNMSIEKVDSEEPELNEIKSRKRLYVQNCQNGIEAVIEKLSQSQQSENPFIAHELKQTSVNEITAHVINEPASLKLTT
# T3: Pot1-DBD_T62A (Schizosaccharomyces pombe, UniProt O13988 1-389, T62A)
# T3 sequence: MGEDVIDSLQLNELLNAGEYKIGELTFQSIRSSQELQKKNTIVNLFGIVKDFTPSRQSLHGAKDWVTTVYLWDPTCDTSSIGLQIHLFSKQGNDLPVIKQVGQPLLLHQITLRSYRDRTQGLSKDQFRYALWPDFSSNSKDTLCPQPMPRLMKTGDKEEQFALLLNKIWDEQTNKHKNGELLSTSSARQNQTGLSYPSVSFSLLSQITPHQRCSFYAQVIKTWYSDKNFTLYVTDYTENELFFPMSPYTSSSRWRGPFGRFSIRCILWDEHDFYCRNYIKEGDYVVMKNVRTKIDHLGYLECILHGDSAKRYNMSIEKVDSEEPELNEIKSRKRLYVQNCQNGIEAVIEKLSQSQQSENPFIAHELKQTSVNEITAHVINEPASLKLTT
# T4: Pot1-DBD_F88A (Schizosaccharomyces pombe, UniProt O13988 1-389, F88A)
# T4 sequence: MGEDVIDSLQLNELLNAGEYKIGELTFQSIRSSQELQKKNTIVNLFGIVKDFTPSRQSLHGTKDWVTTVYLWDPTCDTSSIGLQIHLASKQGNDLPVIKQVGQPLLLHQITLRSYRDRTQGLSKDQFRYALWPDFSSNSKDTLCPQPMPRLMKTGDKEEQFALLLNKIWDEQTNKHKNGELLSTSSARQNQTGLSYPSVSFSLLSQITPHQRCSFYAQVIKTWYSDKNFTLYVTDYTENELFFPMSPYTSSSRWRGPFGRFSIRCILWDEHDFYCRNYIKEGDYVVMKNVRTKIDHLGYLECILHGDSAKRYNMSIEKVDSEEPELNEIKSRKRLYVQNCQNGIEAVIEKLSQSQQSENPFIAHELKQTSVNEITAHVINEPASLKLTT
# T5: Pot1-DBD_Y115A (Schizosaccharomyces pombe, UniProt O13988 1-389, Y115A)
# T5 sequence: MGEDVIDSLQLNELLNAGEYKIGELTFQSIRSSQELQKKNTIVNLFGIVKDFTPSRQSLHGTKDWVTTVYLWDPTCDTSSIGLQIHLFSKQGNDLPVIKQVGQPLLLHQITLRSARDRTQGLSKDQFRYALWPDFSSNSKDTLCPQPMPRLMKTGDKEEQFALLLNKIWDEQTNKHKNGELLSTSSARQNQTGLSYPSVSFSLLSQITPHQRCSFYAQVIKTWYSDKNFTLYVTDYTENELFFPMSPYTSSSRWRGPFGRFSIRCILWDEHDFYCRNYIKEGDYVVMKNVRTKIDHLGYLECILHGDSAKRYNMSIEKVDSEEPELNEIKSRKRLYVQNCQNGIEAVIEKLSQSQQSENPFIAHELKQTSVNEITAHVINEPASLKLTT
# T6: Pot1-DBD_D64A (Schizosaccharomyces pombe, UniProt O13988 1-389, D64A)
# T6 sequence: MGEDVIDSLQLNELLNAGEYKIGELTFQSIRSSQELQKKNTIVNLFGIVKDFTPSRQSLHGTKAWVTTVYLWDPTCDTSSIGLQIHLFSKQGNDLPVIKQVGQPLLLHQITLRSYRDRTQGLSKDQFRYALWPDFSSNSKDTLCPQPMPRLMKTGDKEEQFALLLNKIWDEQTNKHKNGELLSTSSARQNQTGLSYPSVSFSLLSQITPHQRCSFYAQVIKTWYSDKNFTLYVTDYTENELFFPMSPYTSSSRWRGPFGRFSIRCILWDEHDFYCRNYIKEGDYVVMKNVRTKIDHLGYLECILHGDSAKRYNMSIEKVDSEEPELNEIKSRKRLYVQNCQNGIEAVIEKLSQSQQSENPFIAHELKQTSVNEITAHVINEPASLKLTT
# T7: Pot1-DBD_S123A (Schizosaccharomyces pombe, UniProt O13988 1-389, S123A)
# T7 sequence: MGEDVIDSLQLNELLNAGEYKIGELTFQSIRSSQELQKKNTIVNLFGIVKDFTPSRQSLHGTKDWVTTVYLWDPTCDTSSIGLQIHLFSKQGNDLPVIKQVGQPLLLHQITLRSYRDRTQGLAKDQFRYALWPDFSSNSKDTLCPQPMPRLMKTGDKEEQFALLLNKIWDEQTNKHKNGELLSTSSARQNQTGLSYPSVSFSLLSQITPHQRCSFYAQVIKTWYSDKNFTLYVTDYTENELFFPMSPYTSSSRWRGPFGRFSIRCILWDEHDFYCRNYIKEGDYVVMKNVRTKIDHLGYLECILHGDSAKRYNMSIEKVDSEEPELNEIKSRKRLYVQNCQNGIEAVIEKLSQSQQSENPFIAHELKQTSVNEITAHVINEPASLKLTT
# T8: Pot1-DBD_L122A (Schizosaccharomyces pombe, UniProt O13988 1-389, L122A)
# T8 sequence: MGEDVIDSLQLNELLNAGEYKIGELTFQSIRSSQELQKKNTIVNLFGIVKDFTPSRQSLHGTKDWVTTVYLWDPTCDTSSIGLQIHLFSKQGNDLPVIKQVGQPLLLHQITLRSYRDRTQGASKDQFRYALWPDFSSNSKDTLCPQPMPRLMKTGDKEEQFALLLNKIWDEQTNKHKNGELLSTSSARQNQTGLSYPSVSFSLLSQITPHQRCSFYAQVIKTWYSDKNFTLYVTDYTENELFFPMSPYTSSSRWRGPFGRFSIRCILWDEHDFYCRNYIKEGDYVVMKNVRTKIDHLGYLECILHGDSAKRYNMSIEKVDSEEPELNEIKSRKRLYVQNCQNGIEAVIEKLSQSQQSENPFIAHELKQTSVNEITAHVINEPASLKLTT
# Tests used:
# Test in all cases: EMSA
# [1] = target: T1, FL-Pot1
# [2] = target: T2, Pot1-DBD
# [3] = target: T3, Pot1-DBD_T62A
# [4] = target: T4, Pot1-DBD_F88A
# [5] = target: T5, Pot1-DBD_Y115A
# [6] = target: T6, Pot1-DBD_D64A
# [7] = target: T7, Pot1-DBD_S123A
# [8] = target: T8, Pot1-DBD_L122A
Binder,Kd [1] [pM],other results
GGTTACTTTTTT (ssDNA) [6mer_T6],3.2 ± 0.3,–
"GGTUACGGTTACGGT (ssDNA, U at 4 = deoxyuridine) [15_T4U]",3 ± 0.4,–
TTTTTTTTTTTTTTT (ssDNA) [T15],8600 ± 1900,–
GGTTACCCAATGCCA (ssDNA) [6mer_9 comp],3.8 ± 0.1,–
GGTTACGGTTACGG (ssDNA) [14mer],2.4 ± 0.4,–
GGTTACGGTTACGGTTAC (ssDNA) [18mer],3.8 ± 0.3,–
GGTTACCCAATG (ssDNA) [6mer_6 comp],9.5 ± 0.3,–
GGTTACGGTTACG (ssDNA) [13mer],2.3 ± 0.3,–
GGTTACGGTTACGGT (ssDNA) [15mer],2.2 ± 0.1,Kd [2]: 2.9 ± 0.3 pM; Kd [3]: 6.2 ± 0.6 pM; Kd [4]: 120 ± 30 pM; Kd [5]: 8 ± 0.7 pM; Kd [6]: 18 ± 2.4 pM; Kd [7]: 3.7 ± 0.3 pM; Kd [8]: 10 ± 1.4 pM
GGTTACGGTTACGGTTA (ssDNA) [17mer],2.3 ± 0.1,–
GGTTACTTTTTTTTT (ssDNA) [6mer_T9],2.6 ± 0.2,–
GGTTACGGTTACGGTT (ssDNA) [16mer],2.2 ± 0.04,–
GGTTACACGGTTACACGGT (ssDNA) [15mer_2xAC],3.2 ± 0.3,–
GGTTACGGTTAC (ssDNA) [12mer],2.8 ± 0.4,Kd [2]: 4 ± 0.3 pM; Kd [3]: 48 ± 8 pM; Kd [4]: 7700 ± 1800 pM; Kd [5]: 49 ± 5 pM; Kd [6]: 3400 ± 670 pM; Kd [7]: 8.2 ± 0.9 pM; Kd [8]: 770 ± 230 pM
CGTTTGCCAATGCCA (ssDNA) [15 comp GTT],10600 ± 300,–
"GGUTACGGTTACGGT (ssDNA, U at 3 = deoxyuridine) [15_T3U]",2.6 ± 0.2,–
